From the Human Domainome abundance scans (Beltran et al. 2025)
± gives the uncertainty stated by the source.

B1: Tripartite motif-containing protein 6, residues 93 to 134; numbered along this chain, Q9C030 (parent)
chain: KAVLCADHGEKLQLFCQEDGKVICWLCERSQEHRGHHTFLVE

Variants of: B1
Assay: abundance fitness (aPCA) (normalised: wild type 0, dead -1); higher = more abundant; growth selection in yeast, the domain comes from the species named
Conditions: Homo sapiens

Abundance fitness of substitutions, site by site:
D19: R -0.584 ± 0.092; G -0.757 ± 0.19; I -0.888 ± 0.31; C 0.627 ± 0.2; H -0.289 ± 0.12; A -0.807 ± 0.35; S -0.391 ± 0.3
E10: D -0.075 ± 0.16; F -0.01 ± 0.077; G -0.165 ± 0.041; C -0.163 ± 0.1; S -0.319 ± 0.069; R -0.019 ± 0.058; A -0.185 ± 0.15; H -0.442 ± 0.31; Q -0.1 ± 0.059; W -0.406 ± 0.048; Y -0.031 ± 0.068
K11: A 0.029 ± 0.1; L -0.2 ± 0.18; G -0.012 ± 0.16; S 0.155 ± 0.064; V -0.055 ± 0.2; N -0.007 ± 0.08; D 0.142 ± 0.074; T -0.101 ± 0.18; I -0.073 ± 0.089; Q -0.3 ± 0.26; W 0.339 ± 0.15; F -0.113 ± 0.12; R -0.042 ± 0.062; E 0.103 ± 0.092; P 0.315 ± 0.24
Q17: I 0.376 ± 0.25; E 0.053 ± 0.051; P -0.297 ± 0.11; W -0.335 ± 0.092; V -0.373 ± 0.092; F -0.512 ± 0.15; A -0.109 ± 0.053; S -0.316 ± 0.1; G -0.341 ± 0.046; Y -0.406 ± 0.11; R -0.043 ± 0.05; H -0.235 ± 0.14; L -0.364 ± 0.086; C -0.024 ± 0.063; T -0.086 ± 0.07; M -0.605 ± 0.18; K 0.248 ± 0.1
E18: L -1 ± 0.26; T -0.038 ± 0.12; I -0.364 ± 0.29; Q -0.146 ± 0.11; H -0.265 ± 0.29; R -0.302 ± 0.068; K -0.349 ± 0.12; A -0.428 ± 0.083; W -0.537 ± 0.13; G -0.434 ± 0.18; V -0.261 ± 0.084
G20: K -0.284 ± 0.41; H -0.225 ± 0.12; E 0.103 ± 0.087; D 0.202 ± 0.065; A -0.036 ± 0.064; P -0.338 ± 0.36; L 0.117 ± 0.48
Q13: N 0.21 ± 0.2; D -0.109 ± 0.33; G -0.071 ± 0.045; I -0.086 ± 0.22; P -0.256 ± 0.048; Y -0.217 ± 0.17; E 0.142 ± 0.062; T 0.124 ± 0.054; K 0.128 ± 0.11; S 0.058 ± 0.045; A 0.004 ± 0.052; R -0.135 ± 0.047; M -0.274 ± 0.17; V -0.148 ± 0.053
C16: T -0.747 ± 0.087; A -0.284 ± 0.042; H -0.337 ± 0.078; W -0.802 ± 0.083; K -0.275 ± 0.063; S -0.286 ± 0.048; N -0.298 ± 0.061; D -0.218 ± 0.055; E -0.174 ± 0.05; R -0.354 ± 0.042; G -0.304 ± 0.038; V -0.451 ± 0.051; M -0.584 ± 0.075
F15: R -0.112 ± 0.044; C 0.001 ± 0.078; K 0.044 ± 0.067; E -0.126 ± 0.046; N -0.418 ± 0.1; P -0.209 ± 0.062; M -0.029 ± 0.055; S -0.212 ± 0.059; L -0.222 ± 0.051; Q 0.082 ± 0.061; G -0.087 ± 0.041; A -0.248 ± 0.046; D -0.329 ± 0.33; T -0.292 ± 0.056
H8: K -0.419 ± 0.091; V -0.852 ± 0.082; I -0.74 ± 0.18; L -1.08 ± 0.15; N -0.807 ± 0.26; R -0.77 ± 0.062; F -1.09 ± 0.35; P -0.819 ± 0.094; G -0.691 ± 0.049; Q -0.275 ± 0.08; S -0.901 ± 0.12; T -0.69 ± 0.087; W -1 ± 0.093
L12: A 0.204 ± 0.048; M 0.195 ± 0.075; K -0.004 ± 0.086; G 0.117 ± 0.039; R 0.05 ± 0.041; N 0.381 ± 0.14; C 0.092 ± 0.077; T -0.084 ± 0.061; F -0.11 ± 0.13; I -0.231 ± 0.16; E -0.109 ± 0.053; P 0.151 ± 0.059; S 0.202 ± 0.058; V -0.06 ± 0.05; Q -0.008 ± 0.058
G9: A -0.061 ± 0.037; L -0.238 ± 0.038; E -0.179 ± 0.044; S -0.042 ± 0.061; H -0.287 ± 0.21; N 0.332 ± 0.38; D -0.087 ± 0.14; V -0.575 ± 0.054; W -0.301 ± 0.049; Q -0.032 ± 0.048; T -0.407 ± 0.083; M -0.162 ± 0.052; C -0.237 ± 0.27; R -0.066 ± 0.039
L14: I 0.001 ± 0.21; W 0.218 ± 0.054; N -0.153 ± 0.073; D -0.087 ± 0.072; C -0.198 ± 0.072; A -0.186 ± 0.059; G -0.082 ± 0.049; P -0.151 ± 0.1; F -0.064 ± 0.093; T -0.087 ± 0.074; M 0.071 ± 0.12; R 0.106 ± 0.055; V -0.154 ± 0.056; E -0.195 ± 0.081; K 0.065 ± 0.068; H 0.122 ± 0.084
